This note sets out measurements from patent US20060257938A1, “Method of screening for drugs that block ligand binding to a lipid binding protein” (priority 2005, published 2006).

Format in all cases: binding
The nature of test [1]: Probe fluorescence ratio response to linoleic acid relative to ADIFAB2. The settings on record: response relative to ADIFAB2. An outline of the steps: (§1)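 Fluorescently labeled rat intestinal FABP variants were read at two emission wavelengths, near the unbound maximum (about 420 to 480 nm) and the FFA-bound maximum (about 495 to 580 nm). R = Fλ1/Fλ2 after subtracting probe-free intensity; ΔR = R+agent − R0, normalized to ADIFAB2 (rI-FABP-L72A).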

Test [2] is described as follows: Probe fluorescence ratio response to palmitoleic acid relative to ADIFAB2. The conditions noted are these: response relative to ADIFAB2. The method in brief:
as §1

The nature of test [3]: Probe fluorescence ratio response to arachidonic acid relative to ADIFAB2. The conditions noted are these: arachidonic acid; response relative to ADIFAB2. An outline of the steps:
as §1

Test [4] can be described thus: Probe fluorescence ratio response to oleic acid relative to ADIFAB2. The conditions noted are these: response relative to ADIFAB2. An outline of the steps: as §1
The nature of test [5]: Probe fluorescence ratio response to linolenic acid relative to ADIFAB2. The conditions noted are these: response relative to ADIFAB2. The method in brief: as §1
The nature of test [6]: Probe fluorescence ratio response to stearic acid relative to ADIFAB2. The settings on record: response relative to ADIFAB2. The method in brief:
as §1

The nature of test [7]: Probe fluorescence ratio response to palmitic acid relative to ADIFAB2. The settings on record: response relative to ADIFAB2. An outline of the steps:
as §1

B1: 72A 73P 74E (protein, listed as Rattus norvegicus)
chain: AFDGTWKVDRNENYEKFMEKMGINVVKRKLGAHDNLKLTITQEGNKFTVKESSNFRNIDVVFELGVDFAYSAPEGTELTGTWTMEGNKLVGKFKRVDNGKELIAVREISGNELIQTYTYEGVEAKRIFKKE
modifications: PEPTIDE (1)...(131) wild-type rat intestinal fatty acid binding protein
Turning to B1, in test [1], the “DR/DR LA” value was determined as 1.741. Also, the “DR/DR POA” value in test [2] worked out at 2.087. In addition, in test [3], the “DR/DR AA” value is 1.975. The “DR/DR OA” value in test [4] amounted to 1.802. Besides, in test [5], the “DR/DR LNA” value stood at 1.863. Besides, the “DR/DR SA” value in test [6] worked out at 1.512. For the same molecule, the “DR/DR PA” value in test [7] amounted to 1.732.

B2: 72S 74A (protein, listed as Rattus norvegicus)
chain: AFDGTWKVDRNENYEKFMEKMGINVVKRKLGAHDNLKLTITQEGNKFTVKESSNFRNIDVVFELGVDFAYSSAAGTELTGTWTMEGNKLVGKFKRVDNGKELIAVREISGNELIQTYTYEGVEAKRIFKKE
modifications: PEPTIDE (1)...(131) wild-type rat intestinal fatty acid binding protein
Take B2: the “DR/DR LA” value in test [1] came out at 2.037. Besides, the “DR/DR POA” value in test [2] was 2.034. The “DR/DR AA” value in test [3] is on record as 1.648. In addition, the “DR/DR OA” value in test [4] amounted to 1.575. The “DR/DR LNA” value in test [5] was 2.002. Besides, the “DR/DR SA” value in test [6] stood at 1.114. Besides, in test [7], the “DR/DR PA” value amounted to 1.615.

B3: 14M 18L 31W 73I 117G 72A (protein, listed as Rattus norvegicus)
chain: AFDGTWKVDRNENMEKFLEKMGINVVKRKLWAHDNLKLTITQEGNKFTVKESSNFRNIDVVFELGVDFAYSAIDGTELTGTWTMEGNKLVGKFKRVDNGKELIAVREISGNELIQTGTYEGVEAKRIFKKE
modifications: PEPTIDE (1)...(131) wild-type rat intestinal fatty acid binding protein
B3: the “DR/DR LA” value in test [1] was determined as 2.034. The “DR/DR POA” value in test [2] is reported as 1.569. Moreover, the “DR/DR AA” value in test [3] is recorded as 2.032. Also, the “DR/DR OA” value in test [4] was found to be 1.712. Also, the “DR/DR LNA” value in test [5] worked out at 1.869. Further, the “DR/DR SA” value in test [6] is 0.487. The “DR/DR PA” value in test [7] is 0.998.

B4: 14R 18L 31S 73F 117E 72A (protein, listed as Rattus norvegicus)
chain: AFDGTWKVDRNENREKFLEKMGINVVKRKLSAHDNLKLTITQEGNKFTVKESSNFRNIDVVFELGVDFAYSAFDGTELTGTWTMEGNKLVGKFKRVDNGKELIAVREISGNELIQTETYEGVEAKRIFKKE
modifications: PEPTIDE (1)...(131) wild-type rat intestinal fatty acid binding protein
As for B4, in test [1], the “DR/DR LA” value amounted to 1.947. Besides, in test [2], the “DR/DR POA” value was found to be 1.290. Also, the “DR/DR AA” value in test [3] was 1.241. Moreover, the “DR/DR OA” value in test [4] was 1.146. For the same molecule, the “DR/DR LNA” value in test [5] turned out to be 2.296. Also, the “DR/DR SA” value in test [6] is listed as 0.378. Besides, in test [7], the “DR/DR PA” value came out at 0.693.

B5: 38H 62W 106V 117A 72A (protein, listed as Rattus norvegicus)
chain: AFDGTWKVDRNENYEKFMEKMGINVVKRKLGAHDNLKHTITQEGNKFTVKESSNFRNIDVVWELGVDFAYSAADGTELTGTWTMEGNKLVGKFKRVDNGKELIAVVEISGNELIQTATYEGVEAKRIFKKE
modifications: PEPTIDE (1)...(131) wild-type rat intestinal fatty acid binding protein
As to B5, in test [1], the “DR/DR LA” value is 1.337. Also, in test [2], the “DR/DR POA” value was determined as 1.145. Besides, the “DR/DR AA” value in test [3] is 2.007. In test [4], the “DR/DR OA” value amounted to 1.239. Besides, the “DR/DR LNA” value in test [5] turned out to be 1.796. In test [6], the “DR/DR SA” value was 0.947. Besides, in test [7], the “DR/DR PA” value is given as 1.002.

B6: 18V 31A 55I 72A (protein, listed as Rattus norvegicus)
chain: AFDGTWKVDRNENYEKFVEKMGINVVKRKLAAHDNLKLTITQEGNKFTVKESSNIRNIDVVFELGVDFAYSAADGTELTGTWTMEGNKLVGKFKRVDNGKELIAVREISGNELIQTYTYEGVEAKRIFKKE
modifications: PEPTIDE (1)...(131) wild-type rat intestinal fatty acid binding protein
Consider B6, for which the “DR/DR LA” value in test [1] is recorded as 1.334. For the same molecule, the “DR/DR POA” value in test [2] is on record as 1.563. In addition, in test [3], the “DR/DR AA” value was 0.989. The “DR/DR OA” value in test [4] was 0.791. In addition, the “DR/DR LNA” value in test [5] turned out to be 1.580. Besides, the “DR/DR SA” value in test [6] came to 0.420. Further, the “DR/DR PA” value in test [7] was 1.280.

B7: 72T 73G 74I (protein, listed as Rattus norvegicus)
chain: AFDGTWKVDRNENYEKFMEKMGINVVKRKLGAHDNLKLTITQEGNKFTVKESSNFRNIDVVFELGVDFAYSTGIGTELTGTWTMEGNKLVGKFKRVDNGKELIAVREISGNELIQTYTYEGVEAKRIFKKE
modifications: PEPTIDE (1)...(131) wild-type rat intestinal fatty acid binding protein
B7: the “DR/DR LA” value in test [1] is on record as 2.577. For the same molecule, the “DR/DR POA” value in test [2] amounted to 2.771. Moreover, the “DR/DR AA” value in test [3] is 2.226. Also, the “DR/DR OA” value in test [4] worked out at 2.414. Moreover, the “DR/DR LNA” value in test [5] worked out at 2.317. Also, in test [6], the “DR/DR SA” value was found to be 1.755. Further, the “DR/DR PA” value in test [7] came out at 2.177.

B8: 72S 73V 74A (protein, listed as Rattus norvegicus)
chain: AFDGTWKVDRNENYEKFMEKMGINVVKRKLGAHDNLKLTITQEGNKFTVKESSNFRNIDVVFELGVDFAYSSVAGTELTGTWTMEGNKLVGKFKRVDNGKELIAVREISGNELIQTYTYEGVEAKRIFKKE
modifications: PEPTIDE (1)...(131) wild-type rat intestinal fatty acid binding protein
As to B8, in test [1], the “DR/DR LA” value is on record as 2.397. The “DR/DR POA” value in test [2] is recorded as 2.727. Also, the “DR/DR AA” value in test [3] is reported as 2.127. Besides, in test [4], the “DR/DR OA” value came to 2.295. Besides, the “DR/DR LNA” value in test [5] is reported as 2.330. In addition, the “DR/DR SA” value in test [6] is on record as 1.572. Besides, the “DR/DR PA” value in test [7] was 2.601.

B9: 18I 31Y 73G 72A (protein, listed as Rattus norvegicus)
chain: AFDGTWKVDRNENYEKFIEKMGINVVKRKLYAHDNLKLTITQEGNKFTVKESSNFRNIDVVFELGVDFAYSAGDGTELTGTWTMEGNKLVGKFKRVDNGKELIAVREISGNELIQTYTYEGVEAKRIFKKE
modifications: PEPTIDE (1)...(131) wild-type rat intestinal fatty acid binding protein
On to B9, for which, in test [1], the “DR/DR LA” value is listed as 2.559. The “DR/DR POA” value in test [2] worked out at 2.637. Moreover, the “DR/DR AA” value in test [3] is 1.796. Also, in test [4], the “DR/DR OA” value is 1.632. In addition, the “DR/DR LNA” value in test [5] came out at 2.706. Also, the “DR/DR SA” value in test [6] was found to be 0.860. In test [7], the “DR/DR PA” value turned out to be 1.886.

B10: 18I 31Y 72A (protein, listed as Rattus norvegicus)
chain: AFDGTWKVDRNENYEKFIEKMGINVVKRKLYAHDNLKLTITQEGNKFTVKESSNFRNIDVVFELGVDFAYSAADGTELTGTWTMEGNKLVGKFKRVDNGKELIAVREISGNELIQTYTYEGVEAKRIFKKE
modifications: PEPTIDE (1)...(131) wild-type rat intestinal fatty acid binding protein
For B10, the “DR/DR LA” value in test [1] is reported as 2.790. In test [2], the “DR/DR POA” value amounted to 2.639. For the same molecule, in test [3], the “DR/DR AA” value stood at 2.205. Further, in test [4], the “DR/DR OA” value turned out to be 2.096. In test [5], the “DR/DR LNA” value was 2.813. In addition, in test [6], the “DR/DR SA” value is on record as 0.994. Moreover, the “DR/DR PA” value in test [7] is listed as 1.762.

B11: 72T 73I 74A (protein, listed as Rattus norvegicus)
chain: AFDGTWKVDRNENYEKFMEKMGINVVKRKLGAHDNLKLTITQEGNKFTVKESSNFRNIDVVFELGVDFAYSTIAGTELTGTWTMEGNKLVGKFKRVDNGKELIAVREISGNELIQTYTYEGVEAKRIFKKE
modifications: PEPTIDE (1)...(131) wild-type rat intestinal fatty acid binding protein
As for B11, the “DR/DR LA” value in test [1] is recorded as 1.795. In test [2], the “DR/DR POA” value turned out to be 2.320. Besides, in test [3], the “DR/DR AA” value is 2.148. For the same molecule, the “DR/DR OA” value in test [4] was determined as 1.721. In test [5], the “DR/DR LNA” value worked out at 1.944. For the same molecule, the “DR/DR SA” value in test [6] worked out at 1.359. For the same molecule, the “DR/DR PA” value in test [7] came out at 1.687.

B12: 18I 31M 55M 72A (protein, listed as Rattus norvegicus)
chain: AFDGTWKVDRNENYEKFIEKMGINVVKRKLMAHDNLKLTITQEGNKFTVKESSNMRNIDVVFELGVDFAYSAADGTELTGTWTMEGNKLVGKFKRVDNGKELIAVREISGNELIQTYTYEGVEAKRIFKKE
modifications: PEPTIDE (1)...(131) wild-type rat intestinal fatty acid binding protein
Consider B12, for which the “DR/DR LA” value in test [1] was 1.134. Also, the “DR/DR POA” value in test [2] is given as 1.353. For the same molecule, in test [3], the “DR/DR AA” value was 1.010. Further, the “DR/DR OA” value in test [4] worked out at 0.601. For the same molecule, in test [5], the “DR/DR LNA” value is 1.358. The “DR/DR SA” value in test [6] came to 0.296. Besides, in test [7], the “DR/DR PA” value was found to be 1.099.

B13: 72T 74S (protein, listed as Rattus norvegicus)
chain: AFDGTWKVDRNENYEKFMEKMGINVVKRKLGAHDNLKLTITQEGNKFTVKESSNFRNIDVVFELGVDFAYSTASGTELTGTWTMEGNKLVGKFKRVDNGKELIAVREISGNELIQTYTYEGVEAKRIFKKE
modifications: PEPTIDE (1)...(131) wild-type rat intestinal fatty acid binding protein
As to B13, the “DR/DR LA” value in test [1] was 2.469. Moreover, the “DR/DR POA” value in test [2] came to 2.471. Also, the “DR/DR AA” value in test [3] is 2.035. Moreover, the “DR/DR OA” value in test [4] is 2.252. Moreover, the “DR/DR LNA” value in test [5] is reported as 2.621. Moreover, the “DR/DR SA” value in test [6] is 1.779. Besides, the “DR/DR PA” value in test [7] turned out to be 2.209.
